In patent US20250383346A1 one finds Kd data, which are given here for 1 substance.

A word on the Kd: it is a measure of binding affinity in units of concentration. A high value points to weaker binding.

The target of the assay is Her2 extracellular domain antigen (ACRO Biosystems) (UniProt P04626). Description: SPR (Carterra LSA), Fab captured from lysate on Fab Kappa capture reagent, Her2 ECD in solution.

five standards of trastuzumab Fab displayed a Kd of 100 nM.
